Experimental data from PMC4078746 (Current biology : CB, 2010).

Target: the molecule itself
Assay: SEC

B1: Robo2^R1I1+2 Ig1-5 fragment (Ig1+2 of Robo, Ig3-5 of Robo2) (domain or fragment)
chain: not shown
stoichiometry N: 2
